Laboratory results from US20120258041A1 (published 2012).

Key:
human iC3b (human) = human iC3b (human) (UniProt P01024); assay: sandwich ELISA: chicken anti-C3 capture antibody, captured antigen, A209 as detecting antibody, goat anti-mouse-HRP, ABTS
murine iC3b = biological target: T1, murine iC3b (mouse, UniProt P01027 25-1663, limits assumed); assay: sandwich ELISA: rat mAb 2/11 (anti-mouse C3b/iC3b/C3c) capture, mouse serum 1:25 as antigen source, biotinylated antibody, streptavidin-HRP, ABTS, read at 405 nm
T1 construct: Native material from a mixture of two mouse sera; the capture antibody also takes C3b and C3c; also called mouse iC3b
T1 sequence (P01027 25-1663 limits assumed): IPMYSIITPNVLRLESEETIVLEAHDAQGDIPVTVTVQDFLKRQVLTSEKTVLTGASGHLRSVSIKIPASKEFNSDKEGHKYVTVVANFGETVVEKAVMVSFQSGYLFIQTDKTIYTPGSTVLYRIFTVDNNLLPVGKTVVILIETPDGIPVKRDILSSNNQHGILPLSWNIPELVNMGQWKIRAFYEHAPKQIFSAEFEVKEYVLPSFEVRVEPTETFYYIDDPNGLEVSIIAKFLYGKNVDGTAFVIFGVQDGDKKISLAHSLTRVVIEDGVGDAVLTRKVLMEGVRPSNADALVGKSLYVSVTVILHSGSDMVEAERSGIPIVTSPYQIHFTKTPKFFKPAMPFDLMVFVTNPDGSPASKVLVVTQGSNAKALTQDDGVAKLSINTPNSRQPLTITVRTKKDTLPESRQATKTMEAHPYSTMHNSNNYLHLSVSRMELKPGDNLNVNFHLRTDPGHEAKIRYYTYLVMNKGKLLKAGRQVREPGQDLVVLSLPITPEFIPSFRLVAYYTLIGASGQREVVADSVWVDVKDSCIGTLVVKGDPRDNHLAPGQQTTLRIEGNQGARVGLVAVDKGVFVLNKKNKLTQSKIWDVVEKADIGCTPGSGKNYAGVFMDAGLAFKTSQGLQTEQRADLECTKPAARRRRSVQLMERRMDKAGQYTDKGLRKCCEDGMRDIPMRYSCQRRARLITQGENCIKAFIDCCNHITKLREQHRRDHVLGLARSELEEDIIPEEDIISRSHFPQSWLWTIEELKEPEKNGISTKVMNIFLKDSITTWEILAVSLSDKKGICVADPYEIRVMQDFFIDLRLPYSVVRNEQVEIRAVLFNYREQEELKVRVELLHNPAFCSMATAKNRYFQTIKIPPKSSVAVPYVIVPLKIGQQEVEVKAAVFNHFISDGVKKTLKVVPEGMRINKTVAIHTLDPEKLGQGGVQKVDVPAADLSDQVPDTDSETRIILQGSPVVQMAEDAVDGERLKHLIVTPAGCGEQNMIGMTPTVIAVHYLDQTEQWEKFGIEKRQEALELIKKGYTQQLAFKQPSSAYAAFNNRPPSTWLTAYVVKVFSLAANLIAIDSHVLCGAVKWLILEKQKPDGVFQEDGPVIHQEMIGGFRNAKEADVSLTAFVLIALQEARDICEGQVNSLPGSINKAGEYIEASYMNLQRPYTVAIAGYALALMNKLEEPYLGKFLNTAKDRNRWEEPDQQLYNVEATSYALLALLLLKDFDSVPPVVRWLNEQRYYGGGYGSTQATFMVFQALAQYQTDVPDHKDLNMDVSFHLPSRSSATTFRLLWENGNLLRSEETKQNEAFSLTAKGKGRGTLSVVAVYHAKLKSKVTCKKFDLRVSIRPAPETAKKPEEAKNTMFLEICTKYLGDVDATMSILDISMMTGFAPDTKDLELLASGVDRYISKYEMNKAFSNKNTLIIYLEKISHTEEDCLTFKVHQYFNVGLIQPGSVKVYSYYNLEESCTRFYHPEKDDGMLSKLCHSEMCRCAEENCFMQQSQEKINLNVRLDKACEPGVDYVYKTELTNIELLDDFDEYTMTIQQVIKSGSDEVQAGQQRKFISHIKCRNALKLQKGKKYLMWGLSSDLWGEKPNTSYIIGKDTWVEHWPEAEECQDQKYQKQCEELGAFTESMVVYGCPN

Sequence of human iC3b (human) (P01024 23-667 limits assumed, chain 1 of 3): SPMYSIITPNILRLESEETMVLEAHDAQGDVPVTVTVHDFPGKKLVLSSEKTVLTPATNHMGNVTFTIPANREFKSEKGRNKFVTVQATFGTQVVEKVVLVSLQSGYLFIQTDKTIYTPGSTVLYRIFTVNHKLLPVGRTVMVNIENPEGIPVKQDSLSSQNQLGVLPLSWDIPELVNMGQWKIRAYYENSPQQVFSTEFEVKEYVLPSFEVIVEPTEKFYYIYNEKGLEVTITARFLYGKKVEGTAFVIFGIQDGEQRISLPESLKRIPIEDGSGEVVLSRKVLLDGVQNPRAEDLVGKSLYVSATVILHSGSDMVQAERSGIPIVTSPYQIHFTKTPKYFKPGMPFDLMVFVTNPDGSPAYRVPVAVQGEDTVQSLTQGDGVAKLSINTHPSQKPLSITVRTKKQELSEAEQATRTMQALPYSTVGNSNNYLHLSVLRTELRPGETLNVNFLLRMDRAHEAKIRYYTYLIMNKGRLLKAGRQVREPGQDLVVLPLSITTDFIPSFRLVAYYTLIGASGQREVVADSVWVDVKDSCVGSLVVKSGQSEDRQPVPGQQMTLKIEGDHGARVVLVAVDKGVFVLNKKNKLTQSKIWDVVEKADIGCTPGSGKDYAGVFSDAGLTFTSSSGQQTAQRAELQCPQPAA
Sequence of human iC3b (human) (P01024 749-1303 limits assumed, chain 2 of 3): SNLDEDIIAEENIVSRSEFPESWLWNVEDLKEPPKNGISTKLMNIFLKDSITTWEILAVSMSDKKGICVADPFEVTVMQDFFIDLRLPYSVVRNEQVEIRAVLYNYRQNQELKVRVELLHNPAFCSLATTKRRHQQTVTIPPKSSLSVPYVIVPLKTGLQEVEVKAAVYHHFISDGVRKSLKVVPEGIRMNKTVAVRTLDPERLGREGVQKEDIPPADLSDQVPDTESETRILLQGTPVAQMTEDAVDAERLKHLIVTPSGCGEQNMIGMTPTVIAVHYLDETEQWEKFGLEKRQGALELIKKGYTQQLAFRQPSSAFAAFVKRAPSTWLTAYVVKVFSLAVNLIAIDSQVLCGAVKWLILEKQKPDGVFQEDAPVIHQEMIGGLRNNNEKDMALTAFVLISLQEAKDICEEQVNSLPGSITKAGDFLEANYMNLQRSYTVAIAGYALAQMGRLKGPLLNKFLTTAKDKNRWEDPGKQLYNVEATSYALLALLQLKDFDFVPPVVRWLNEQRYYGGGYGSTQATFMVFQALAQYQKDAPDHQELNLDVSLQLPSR
Sequence of human iC3b (human) (P01024 1321-1663 limits assumed, chain 3 of 3): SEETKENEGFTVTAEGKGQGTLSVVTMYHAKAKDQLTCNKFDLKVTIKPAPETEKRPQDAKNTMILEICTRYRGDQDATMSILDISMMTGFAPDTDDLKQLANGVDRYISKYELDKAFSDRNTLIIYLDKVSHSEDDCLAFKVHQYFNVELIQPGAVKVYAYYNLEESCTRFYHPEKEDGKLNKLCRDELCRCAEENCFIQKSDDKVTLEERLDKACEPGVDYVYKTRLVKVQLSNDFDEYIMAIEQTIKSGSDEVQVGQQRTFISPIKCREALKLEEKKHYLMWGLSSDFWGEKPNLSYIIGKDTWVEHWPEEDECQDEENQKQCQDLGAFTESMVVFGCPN

Molecule	EC50 (read off the curve) (human iC3b (human))	EC50 (read off the curve) (murine iC3b)
A209 antibody (Quidel), mouse anti-human iC3b monoclonal antibody	0.03 µg/mL	
mouse monoclonal antibody 5D2 (antibody, V domains shown) VH: EVQLQQSGPELVKPGASVKISCKASGYTFTDNYYMNWVKQSHGKSLEWIGHIYPNNGVTSYNQKFRGKATLTVDKSSNSAYMELRSLTSEDSALYYCARNKLLSLYWYFDVWGTGTSVTVSS VL: DIQMTQSSSSFSVFLGDRITITCRASVDIYNRLAWFQQKPGNAPRLLISGATSLATGVPSRFSGSGSGKDYTLSITSLQTEDVTIYYCQQYWSTPWTFGGGTKLEIKR		~20 nM
